Positions count from the first letter of the chain named. Names may count otherwise.

Four molecules from US20240392004A1 (IMMUNOWAKE, published 2024) can be followed below.

The chains are these.
T1: human IL-2 receptor (IL-2Rα, IL-2Rβ, IL-2Rγ) (human, UniProt P01589 22-272; P14784 27-551; P31785 23-369)
T1 sequence (looked up) 1: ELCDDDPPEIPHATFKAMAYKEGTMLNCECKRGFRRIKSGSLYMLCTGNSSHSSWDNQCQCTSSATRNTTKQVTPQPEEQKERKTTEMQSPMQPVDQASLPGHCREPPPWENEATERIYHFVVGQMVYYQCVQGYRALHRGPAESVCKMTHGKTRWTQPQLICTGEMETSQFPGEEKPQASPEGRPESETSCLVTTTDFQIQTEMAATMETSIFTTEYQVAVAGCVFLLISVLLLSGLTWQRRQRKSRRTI
T1 sequence (looked up) 2: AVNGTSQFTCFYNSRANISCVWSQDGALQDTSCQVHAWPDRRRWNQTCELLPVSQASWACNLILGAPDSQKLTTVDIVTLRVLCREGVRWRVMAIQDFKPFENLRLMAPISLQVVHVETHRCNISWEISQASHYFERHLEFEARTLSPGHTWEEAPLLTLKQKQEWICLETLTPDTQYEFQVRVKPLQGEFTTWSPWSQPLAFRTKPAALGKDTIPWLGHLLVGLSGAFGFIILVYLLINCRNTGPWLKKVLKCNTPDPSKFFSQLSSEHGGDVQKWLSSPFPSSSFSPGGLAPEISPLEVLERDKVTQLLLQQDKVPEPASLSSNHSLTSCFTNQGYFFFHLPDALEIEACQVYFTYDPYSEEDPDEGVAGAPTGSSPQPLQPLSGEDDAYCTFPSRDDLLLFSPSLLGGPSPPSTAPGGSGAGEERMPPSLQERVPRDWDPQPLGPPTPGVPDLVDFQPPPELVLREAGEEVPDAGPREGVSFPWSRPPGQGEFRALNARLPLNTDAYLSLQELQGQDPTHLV
T1 sequence (looked up) 3: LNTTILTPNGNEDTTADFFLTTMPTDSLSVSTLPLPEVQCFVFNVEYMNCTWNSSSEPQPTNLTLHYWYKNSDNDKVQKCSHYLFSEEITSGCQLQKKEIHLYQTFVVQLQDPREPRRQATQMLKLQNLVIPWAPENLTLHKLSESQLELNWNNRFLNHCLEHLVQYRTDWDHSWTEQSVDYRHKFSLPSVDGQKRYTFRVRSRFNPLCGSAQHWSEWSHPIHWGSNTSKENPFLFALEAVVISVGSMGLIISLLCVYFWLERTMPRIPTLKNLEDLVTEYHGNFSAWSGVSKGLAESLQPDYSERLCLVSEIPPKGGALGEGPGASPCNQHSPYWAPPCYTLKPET

B1: IL-2(R38D/K43E/E61R/Q126T)/IL-12(E59A/F60A)/PD-L1(mut2)-Fc (Fc fusion)
chain 1: FTVTVPKDLYVVEYGSNMTIECKFPVEKQLDLAALQVYWMMEDKNIIQFVHGEEDLKVQHSSYRQRARLLKDQLSLGNAALQITDVKLQDAGVYTCLIAYKGADYKRITVKVNAPYNKINQRILVVDPVTSEHELTCQAEGYPKAEVIWTSSDHQVLSGKTTTTNSKREEKLFNVTSTLRINTTTNEIFYCTFRRLDPEENHTAELVIPELPLAHPPNERGGGGSGGGIWELKKDVYVVELDWYPDAPGEMVVLTCDTPEEDGITWTLDQSSEVLGSGKTLTIQVKAAGDAGQYTCHKGGEVLSHSLLLLHKKEDGIWSTDILKDQKEPKNKTFLRCEAKNYSGRFTCWWLTTISTDLTFSVKSSRGSSDPQGVTCGAATLSAERVRGDNKEYEYSVECQEDSACPAAEESLPIEVMVDAVHKLKYENYTSSFFIRDIIKPDPPKNLQLKPLKNSRQVEVSWEYPDTWSTPHSYFSLTFCVQVQGKSKREKKDRVFTDKTSATVICRKNASISVRAQDRYYSSSWSEWASVPCSGGGGSGGGSGGGGSRNLPVATPDPGMFPCLHHSQNLLRAVSNMLQKARQTLEFYPCTSEEIDHEDITKDKTSTVEACLPLELTKNESCLNSRETSFITNGSCLASRKTSFMMALCLSSIYEDLKMYQVEFKTMNAKLLMDPKRQIFLDQNMLAVIDELMQALNFNSETVPQKSSLEEPDFYKTKIKLCILLHAFRIRAVTIDRVMSYLNASGGGGSGGGDKTHTCPPCPAPEDEGGPSVFLFPPKPKDTLMISRTPEVTCVVVDVSHEDPEVKFNWYVDGVEVHNAKTKPREEQYNSTYRVVSVLTVLHQDWLNGKEYKCKVSNKALPAPIEKTISKAKGQPREPQVYVYPPSREEMTKNQVSLTCLVKGFYPSDIAVEWESNGQPENNYKTTPPVLDEDGSFALVSKLTVDKSRWQQGNVFSCSVMHEALHNHYTQKSLSLSPGK
chain 2: FTVTVPKDLYVVEYGSNMTIECKFPVEKQLDLAALQVYWMMEDKNIIQFVHGEEDLKVQHSSYRQRARLLKDQLSLGNAALQITDVKLQDAGVYTCLIAYKGADYKRITVKVNAPYNKINQRILVVDPVTSEHELTCQAEGYPKAEVIWTSSDHQVLSGKTTTTNSKREEKLFNVTSTLRINTTTNEIFYCTFRRLDPEENHTAELVIPELPLAHPPNERGGGSGAPTSSSTKKTQLQLEHLLLDLQMILNGINNYKNPKLTDMLTFEFYMPKKATELKHLQCLERELKPLEEVLNLAQSKNFHLRPRDLISNINVIVLELKGSETTFMCEYADETATIVEFLNRWITFCTSIISTLTGGGGSGGGDKTHTCPPCPAPEKKGGPSVFLFPPKPKDTLMISRTPEVTCVVVDVSHEDPEVKFNWYVDGVEVHNAKTKPREEQYNSTYRVVSVLTVLHQDWLNGKEYKCKVSNKALPAPIEKTISKAKGQPREPQVYVLPPSREEMTKNQVSLLCLVKGFYPSDIAVEWESNGQPENRYMTWPPVLDSDGSFFLYSKLTVDKSRWQQGNVFSCSVMHEALHNHYTQKSLSLSPGK
B2: IL-2(L18R/Q22E/R38D/K43E/E61R)/PD-L1(mut2)-Fc/IL-12(E59A/F60A) (Fc fusion)
chain 1: FTVTVPKDLYVVEYGSNMTIECKFPVEKQLDLAALQVYWMMEDKNIIQFVHGEEDLKVQHSSYRQRARLLKDQLSLGNAALQITDVKLQDAGVYTCLIAYKGADYKRITVKVNAPYNKINQRILVVDPVTSEHELTCQAEGYPKAEVIWTSSDHQVLSGKTTTTNSKREEKLFNVTSTLRINTTTNEIFYCTFRRLDPEENHTAELVIPELPLAHPPNERGGGGSGGGDKTHTCPPCPAPEDEGGPSVFLFPPKPKDTLMISRTPEVTCVVVDVSHEDPEVKFNWYVDGVEVHNAKTKPREEQYNSTYRVVSVLTVLHQDWLNGKEYKCKVSNKALPAPIEKTISKAKGQPREPQVYVYPPSREEMTKNQVSLTCLVKGFYPSDIAVEWESNGQPENNYKTTPPVLDEDGSFALVSKLTVDKSRWQQGNVFSCSVMHEALHNHYTQKSLSLSPGKGGGGSGGGIWELKKDVYVVELDWYPDAPGEMVVLTCDTPEEDGITWTLDQSSEVLGSGKTLTIQVKAAGDAGQYTCHKGGEVLSHSLLLLHKKEDGIWSTDILKDQKEPKNKTFLRCEAKNYSGRFTCWWLTTISTDLTFSVKSSRGSSDPQGVTCGAATLSAERVRGDNKEYEYSVECQEDSACPAAEESLPIEVMVDAVHKLKYENYTSSFFIRDIIKPDPPKNLQLKPLKNSRQVEVSWEYPDTWSTPHSYFSLTFCVQVQGKSKREKKDRVFTDKTSATVICRKNASISVRAQDRYYSSSWSEWASVPCSGGGGSGGGSGGGGSRNLPVATPDPGMFPCLHHSQNLLRAVSNMLQKARQTLEFYPCTSEEIDHEDITKDKTSTVEACLPLELTKNESCLNSRETSFITNGSCLASRKTSFMMALCLSSIYEDLKMYQVEFKTMNAKLLMDPKRQIFLDQNMLAVIDELMQALNFNSETVPQKSSLEEPDFYKTKIKLCILLHAFRIRAVTIDRVMSYLNAS
chain 2: B1 chain 2 with L243R, Q247E, T351Q
B3: IL-2(R38D/K43E/E61R/Q126T)/PD-L1(mut2)-Fc/IL-12(E59A/F60A) (Fc fusion)
chain 1: B2 chain 1
chain 2: B1 chain 2
B4: PD-L1(mut2)-Fc/IL-12(E59A/F60A) (IL-12 at C' of Fc) (Fc fusion)
chain 1: B2 chain 1
chain 2: FTVTVPKDLYVVEYGSNMTIECKFPVEKQLDLAALQVYWMMEDKNIIQFVHGEEDLKVQHSSYRQRARLLKDQLSLGNAALQITDVKLQDAGVYTCLIAYKGADYKRITVKVNAPYNKINQRILVVDPVTSEHELTCQAEGYPKAEVIWTSSDHQVLSGKTTTTNSKREEKLFNVTSTLRINTTTNEIFYCTFRRLDPEENHTAELVIPELPLAHPPNERGGGGSGGGDKTHTCPPCPAPEKKGGPSVFLFPPKPKDTLMISRTPEVTCVVVDVSHEDPEVKFNWYVDGVEVHNAKTKPREEQYNSTYRVVSVLTVLHQDWLNGKEYKCKVSNKALPAPIEKTISKAKGQPREPQVYVLPPSREEMTKNQVSLLCLVKGFYPSDIAVEWESNGQPENRYMTWPPVLDSDGSFFLYSKLTVDKSRWQQGNVFSCSVMHEALHNHYTQKSLSLSPGK

Sequence of human PD-1 on cells (HEK-PD-1 reporter cells; activated PBMC) (Q15116 25-288): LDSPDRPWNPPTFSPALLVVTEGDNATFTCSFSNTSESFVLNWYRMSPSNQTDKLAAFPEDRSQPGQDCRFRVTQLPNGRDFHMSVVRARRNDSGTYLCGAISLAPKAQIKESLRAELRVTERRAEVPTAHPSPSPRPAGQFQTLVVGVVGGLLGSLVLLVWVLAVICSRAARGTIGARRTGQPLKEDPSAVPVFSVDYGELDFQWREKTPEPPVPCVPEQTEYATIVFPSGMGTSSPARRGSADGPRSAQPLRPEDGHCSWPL
Sequence of human IL-12 receptor complex (IL-12Rβ1 and IL-12Rβ2) (Q99665 24-862, chain 2 of 2, other chains not shown): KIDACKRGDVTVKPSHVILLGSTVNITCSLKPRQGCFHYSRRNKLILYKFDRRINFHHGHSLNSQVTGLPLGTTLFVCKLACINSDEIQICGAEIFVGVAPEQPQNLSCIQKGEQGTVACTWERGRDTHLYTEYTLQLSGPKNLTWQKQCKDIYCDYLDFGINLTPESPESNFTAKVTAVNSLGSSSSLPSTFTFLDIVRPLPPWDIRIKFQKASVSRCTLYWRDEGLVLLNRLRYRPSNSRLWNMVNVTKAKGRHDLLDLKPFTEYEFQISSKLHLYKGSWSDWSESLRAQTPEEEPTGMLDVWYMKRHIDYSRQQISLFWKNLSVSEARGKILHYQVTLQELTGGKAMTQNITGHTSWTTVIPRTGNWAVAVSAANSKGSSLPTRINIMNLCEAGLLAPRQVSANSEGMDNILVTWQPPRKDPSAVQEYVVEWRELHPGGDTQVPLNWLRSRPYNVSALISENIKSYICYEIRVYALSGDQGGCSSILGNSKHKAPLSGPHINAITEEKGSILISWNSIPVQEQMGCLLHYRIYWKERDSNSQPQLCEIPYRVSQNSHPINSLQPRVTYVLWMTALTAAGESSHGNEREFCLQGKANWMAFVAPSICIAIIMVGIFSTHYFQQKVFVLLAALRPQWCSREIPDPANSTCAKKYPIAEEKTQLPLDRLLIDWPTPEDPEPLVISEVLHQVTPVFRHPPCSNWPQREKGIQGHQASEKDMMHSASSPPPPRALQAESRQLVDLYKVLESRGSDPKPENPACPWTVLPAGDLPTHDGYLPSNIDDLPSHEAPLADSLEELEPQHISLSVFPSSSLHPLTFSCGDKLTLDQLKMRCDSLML

The first assay concerns the target human IL-12 receptor complex (IL-12Rβ1 and IL-12Rβ2) (human, UniProt P42701 24-662; Q99665 24-862). Nature of the assay: cell-based or functional assay.
On to B1, for which the “IL-12 signal transduction, HEK-IL-12” value is < 0.2%.
Still for that read-out and setting: as for B2, the figure is 2%.
For B3, the “IL-12 signal transduction, HEK-IL-12” value is 1%.
For the molecule B4, the “IL-12 signal transduction, HEK-IL-12” value turned out to be 1%.

The target of a further assay is T1, human IL-2 receptor (IL-2Rα, IL-2Rβ, …). Briefly: cell-based or functional assay.
As for B1, the “IL-2 signal transduction, HEK-IL-2” value is 2%.
As to B2, the “IL-2 signal transduction, HEK-IL-2” value was 3%.
On to B3, for which the “IL-2 signal transduction, HEK-IL-2” value is 3%.
Still for that read-out and setting: the value for B4 was < 0.1%.

Another assay has as its target human PD-1 on cells (HEK-PD-1 reporter cells; activated PBMC) (human, UniProt Q15116 25-288). Nature of the assay: cell-based or functional assay.
As for B1, the “IL-2 signal transduction, HEK-IL-2-PD-1” value is 20% and the “IL-12 signal transduction, HEK-IL-12-PD-1” value worked out at 25%.
For B2 the same measures were 32% and 27%.
Regarding B3, the “IL-2 signal transduction, HEK-IL-2-PD-1” value was found to be 31% and the “IL-12 signal transduction, HEK-IL-12-PD-1” value was determined as 30%.
As for B4, the “IL-2 signal transduction, HEK-IL-2-PD-1” value was < 0.1% and the “IL-12 signal transduction, HEK-IL-12-PD-1” value was 25%.
